Results taken from patent publication US20260258084A1, “New Peptides as Selective IL-23 Receptor Antagonists” (Sanofi, priority 2022, published 2026).
Starred links: 1 amine or outer side, 2 acyl side, 3 side chain; linkers in the order of their positions; H or OH if unused. Positions of bridges follow the written chain, without caps; N, C: chain ends. Non-standard residues stand in square brackets, D forms with d. Yde = (2S)-2-amino-3-[4-[2-(dimethylamino)ethoxy]phenyl]propanoic acid, CN(C)CCOc1ccc(C[C@H](N[*:1])C(=O)[*:2])cc1; Phe(4-OMe) = COc1ccc(C[C@H](N[*:1])C(=O)[*:2])cc1; Trp(7-Me) = Cc1cccc2c(C[C@H](N)C(=O)O)c[nH]c12; 2Nal = N[C@@H](Cc1ccc2ccccc2c1)C(=O)O; εLys = N[C@@H](CCCCN[*:1])C(=O)[*:2]; AEF = NCCOc1ccc(C[C@H](N)C(=O)O)cc1; 3Pal = N[C@@H](Cc1cccnc1)C(=O)O; Dad = desamino-aspartamic acid; Lys(Me) = CNCCCC[C@H](N)C(=O)O; αMeL = CC(C)C[C@](C)(N)C(=O)O; Nmapt = not defined here; Thp = NC1(C(=O)O)CCOCC1; Aib = CC(C)(N)C(=O)O; Ahx = NCCCCCC(=O)O; Ava = NCCCCC(=O)O; Sar = CNCC(=O)O

T1: IL-23 receptor on the surface of HEK-Blue IL-23 cells (UniProt Q5VWK5 24-629, limits assumed)
T1 sequence (looked up): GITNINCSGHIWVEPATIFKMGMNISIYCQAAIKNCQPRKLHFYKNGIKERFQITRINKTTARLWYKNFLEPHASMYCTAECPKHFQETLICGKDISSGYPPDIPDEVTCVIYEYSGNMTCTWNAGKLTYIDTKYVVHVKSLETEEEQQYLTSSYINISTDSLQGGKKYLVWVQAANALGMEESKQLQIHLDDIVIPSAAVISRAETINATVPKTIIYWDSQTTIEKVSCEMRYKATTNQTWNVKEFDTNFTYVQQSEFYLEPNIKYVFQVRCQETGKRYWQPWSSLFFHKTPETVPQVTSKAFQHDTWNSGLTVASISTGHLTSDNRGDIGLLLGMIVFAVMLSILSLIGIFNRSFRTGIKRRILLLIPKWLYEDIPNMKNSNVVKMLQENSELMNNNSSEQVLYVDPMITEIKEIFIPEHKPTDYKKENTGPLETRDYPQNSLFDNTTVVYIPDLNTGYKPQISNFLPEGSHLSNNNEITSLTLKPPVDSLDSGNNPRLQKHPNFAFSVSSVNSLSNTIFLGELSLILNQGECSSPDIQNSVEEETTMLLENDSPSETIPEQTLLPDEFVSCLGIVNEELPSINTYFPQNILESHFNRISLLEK

B1: Compound of SEQ ID NO: 33 (peptide)
peptide: [Ava]C[εLys](Ac)WQC[Yde][2Nal][Thp]EA[dL]-NH2
modifications: lactam N-10; disulfide 2-6; also: Cys2 carboxyl bonded to Lys3 epsilon-NH2 (isopeptide), Lys3 alpha-N acetylated
B2: Compound of SEQ ID NO: 24 (peptide)
peptide: [Ava]CNT[Trp(7-Me)]LC[Yde][2Nal][Thp]EN[3Pal][Sar]-NH2
modifications: lactam N-11; disulfide 2-7
SMILES: Cc1cccc2c(C[C@@H]3NC(=O)[C@H]([C@@H](C)O)NC(=O)[C@H](CC(N)=O)NC(=O)[C@@H]4CSSC[C@H](NC(=O)[C@H](CC(C)C)NC3=O)C(=O)N[C@@H](Cc3ccc(OCCN(C)C)cc3)C(=O)N[C@@H](Cc3ccc5ccccc5c3)C(=O)NC3(CCOCC3)C(=O)N[C@H](C(=O)N[C@@H](CC(N)=O)C(=O)N[C@@H](Cc3cccnc3)C(=O)N(C)CC(N)=O)CCC(=O)NCCCCC(=O)N4)c[nH]c12
B3: Compound of SEQ ID NO: 21 (peptide)
peptide: [Ava]CNT[Trp(7-Me)]K(Ac)C[Yde][2Nal][Thp]ENH-NH2
modifications: lactam N-11; disulfide 2-7
SMILES: CC(=O)NCCCC[C@@H]1NC(=O)[C@H](Cc2c[nH]c3c(C)cccc23)NC(=O)[C@H]([C@@H](C)O)NC(=O)[C@H](CC(N)=O)NC(=O)[C@@H]2CSSC[C@H](NC1=O)C(=O)N[C@@H](Cc1ccc(OCCN(C)C)cc1)C(=O)N[C@@H](Cc1ccc3ccccc3c1)C(=O)NC1(CCOCC1)C(=O)N[C@H](C(=O)N[C@@H](CC(N)=O)C(=O)N[C@@H](Cc1c[nH]cn1)C(N)=O)CCC(=O)NCCCCC(=O)N2
B4: Compound of SEQ ID NO: 32 (peptide)
peptide: [Ava]C[εLys](Ac)WQC[Yde][2Nal][Aib]EAG-NH2
modifications: lactam N-10; disulfide 2-6; also: Cys2 carboxyl bonded to Lys3 epsilon-NH2 (isopeptide), Lys3 alpha-N acetylated
B5: Compound of SEQ ID NO: 20 (peptide)
peptide: [Ava]CNT[Trp(7-Me)]K(Ac)C[Yde][2Nal][Aib]ENH-NH2
modifications: lactam N-11; disulfide 2-7
SMILES: CC(=O)NCCCC[C@@H]1NC(=O)[C@H](Cc2c[nH]c3c(C)cccc23)NC(=O)[C@H]([C@@H](C)O)NC(=O)[C@H](CC(N)=O)NC(=O)[C@@H]2CSSC[C@H](NC1=O)C(=O)N[C@@H](Cc1ccc(OCCN(C)C)cc1)C(=O)N[C@@H](Cc1ccc3ccccc3c1)C(=O)NC(C)(C)C(=O)N[C@H](C(=O)N[C@@H](CC(N)=O)C(=O)N[C@@H](Cc1c[nH]cn1)C(N)=O)CCC(=O)NCCCCC(=O)N2
B6: Compound of SEQ ID NO: 3 (peptide)
peptide: [Ahx]CNTWQC[Phe(4-OMe)][2Nal][Aib]DNN-NH2
modifications: lactam N-11; disulfide 2-7
SMILES: COc1ccc(C[C@@H]2NC(=O)[C@@H]3CSSC[C@H](NC(=O)CCCCCNC(=O)C[C@@H](C(=O)N[C@@H](CC(N)=O)C(=O)N[C@@H](CC(N)=O)C(N)=O)NC(=O)C(C)(C)NC(=O)[C@H](Cc4ccc5ccccc5c4)NC2=O)C(=O)N[C@@H](CC(N)=O)C(=O)N[C@@H]([C@@H](C)O)C(=O)N[C@@H](Cc2c[nH]c4ccccc24)C(=O)N[C@@H](CCC(N)=O)C(=O)N3)cc1
B7: Compound of SEQ ID NO: 29 (peptide)
peptide: [Ava]C[εLys](Ac)WQC[Yde][2Nal][Aib]ENG-NH2
modifications: lactam N-10; disulfide 2-6; also: Cys2 carboxyl bonded to Lys3 epsilon-NH2 (isopeptide), Lys3 alpha-N acetylated
B8: Compound of SEQ ID NO: 27 (peptide)
peptide: [Ava]CNTWQC[Yde][2Nal][αMeL]ENN-NH2
modifications: lactam N-11; disulfide 2-7
SMILES: CC(C)C[C@]1(C)NC(=O)[C@H](Cc2ccc3ccccc3c2)NC(=O)[C@H](Cc2ccc(OCCN(C)C)cc2)NC(=O)[C@@H]2CSSC[C@H](NC(=O)CCCCNC(=O)CC[C@@H](C(=O)N[C@@H](CC(N)=O)C(=O)N[C@@H](CC(N)=O)C(N)=O)NC1=O)C(=O)N[C@@H](CC(N)=O)C(=O)N[C@@H]([C@@H](C)O)C(=O)N[C@@H](Cc1c[nH]c3ccccc13)C(=O)N[C@@H](CCC(N)=O)C(=O)N2
B9: Compound of SEQ ID NO: 26 (peptide)
peptide: [Ava]CNTWQC[Yde][2Nal][Thp]ENN-NH2
modifications: lactam N-11; disulfide 2-7
SMILES: C[C@@H](O)[C@@H]1NC(=O)[C@H](CC(N)=O)NC(=O)[C@@H]2CSSC[C@H](NC(=O)[C@H](CCC(N)=O)NC(=O)[C@H](Cc3c[nH]c4ccccc34)NC1=O)C(=O)N[C@@H](Cc1ccc(OCCN(C)C)cc1)C(=O)N[C@@H](Cc1ccc3ccccc3c1)C(=O)NC1(CCOCC1)C(=O)N[C@H](C(=O)N[C@@H](CC(N)=O)C(=O)N[C@@H](CC(N)=O)C(N)=O)CCC(=O)NCCCCC(=O)N2
B10: Compound of SEQ ID NO: 31 (peptide)
peptide: [Ava]C[εLys](Ac)WQC[Yde][2Nal][αMeL]ENG-NH2
modifications: lactam N-10; disulfide 2-6; also: Cys2 carboxyl bonded to Lys3 epsilon-NH2 (isopeptide), Lys3 alpha-N acetylated
B11: Compound of SEQ ID NO: 34 (peptide)
peptide: [Nmapt]CKWQC[AEF][2Nal][Thp]EA[dL]-NH2
modifications: lactam N-10; disulfide 2-6; not fully specified (residue 3); printed as Nmapt(§1)-C(§3)(@2)-K[aAc](@3)-W-Q-C(@2)-Yae-Nal-Thp-E(§1)-A-(D-Leu)-NH2; reading uncertain; also: Cys2 carboxyl joined to Lys3 epsilon-NH2 (isopeptide bond)
B12: Compound of SEQ ID NO: 30 (peptide)
peptide: [Ava]C[εLys](Ac)WQC[Yde][2Nal][Thp]ENG-NH2
modifications: lactam N-10; disulfide 2-6; also: Cys2 carboxyl bonded to Lys3 epsilon-NH2 (isopeptide), Lys3 alpha-N acetylated
B13: Compound of SEQ ID NO: 22 (peptide)
peptide: [Ava]CNT[Trp(7-Me)]K(Ac)C[Yde][2Nal][αMeL]ENH-NH2
modifications: lactam N-11; disulfide 2-7
SMILES: CC(=O)NCCCC[C@@H]1NC(=O)[C@H](Cc2c[nH]c3c(C)cccc23)NC(=O)[C@H]([C@@H](C)O)NC(=O)[C@H](CC(N)=O)NC(=O)[C@@H]2CSSC[C@H](NC1=O)C(=O)N[C@@H](Cc1ccc(OCCN(C)C)cc1)C(=O)N[C@@H](Cc1ccc3ccccc3c1)C(=O)N[C@@](C)(CC(C)C)C(=O)N[C@H](C(=O)N[C@@H](CC(N)=O)C(=O)N[C@@H](Cc1c[nH]cn1)C(N)=O)CCC(=O)NCCCCC(=O)N2

Target: T1, IL-23 receptor on the surface of …
Assay: cell-based or functional assay

| pSTAT3 (nM) | Binder |
| --- | --- |
| 39.2 nM | [Dad]CNTWQC[Yde][2Nal][Aib][Lys(Me)]NN-NH2 (lactam N-11; disulfide 2-7) [Compound of SEQ ID NO: 25] |
| 53.8 nM | B1 |
| 0.59 nM | B2 |
| 2.67 nM | B3 |
| 20.5 nM | B4 |
| 3.12 nM | B5 |
| 17.2 nM | B6 |
| 8.16 nM | B7 |
| 3.32 nM | [Dad]CNT[Trp(7-Me)]K(Ac)C[Yde][2Nal][αMeL]KNH-NH2 (lactam N-11; disulfide 2-7) [Compound of SEQ ID NO: 23] |
| 1.71 nM | B8 |
| 3.37 nM | B9 |
| 5.23 nM | B10 |
| 13.3 nM | B11 |
| 5.41 nM | B12 |
| 1.37 nM | B13 |
